Experimental data published in US5459256A, “Lipophilic, aminohydrolase-activated prodrugs” (priority 1991, dated 1995).

Tests used:
Test in all cases: purified protein, by the assay type
Details in all cases: other: pH 7.4 and 37° C.
[1] = substrate: CNc1ncnc2c1ncn2[C@@H]1O[C@H](CO)C[C@@H]1F
Method: (§1) Deamination of dideoxyadenosine analogues by adenosine deaminase. Hydrolysis kinetics and 2'-F-dd-ara-I formation during the incubation of 50 μM N^6 -CH3 -2'-F-dd-ara-A (1f) with 0.7 units/mL of adenosine deaminase at 37° C. A unit of adenosine deaminase is the amount of enzyme which hydrolyzes a standard substrate (e.g., adenosine) at the rate of 1.0 μmole/min at 25° C. and pH 7.5. […] Insert: Adenosine deaminase hydrolysis kinetics for 50 μM ddA and 2'-F-dd-ara-A. The hydrolysis curve for ddA has been extrapolated from kinetics obtained with 0.07 units/mL of adenosine deaminase under identical conditions.
(§2) A 50 μl aliquot of a 10 mg/ml suspension of adenosine deaminase (adenosine aminohydrolase, EC 3.5.4.4) from calf intestinal mucosa was centrifuged at 600×g for 3 min. The residue remaining after removal of the (NH4)2 SO4 supernatant was dissolved in 0.5 ml pH 7.4 tris(hydroxymethyl)-aminomethane (Tris) buffer to give an enzyme solution of 1 mg/ml (274 units/ml). […]
(§3) Enzymatic Deamination of Adenosine Analogues. […] The decrease in substrate concentration was monitored by HPLC analysis of the resultant ultrafiltrate (see below). The ability of 2'-deoxycoformycin to inhibit deamination under the above conditions was evaluated by adding 2 μL of 1.0 mM inhibitor to diluted substrate solutions at the time of equilibration. […] Initial hydrolysis rates for each substrate concentration were measured through linear least-squares curve fitting of the concentration versus time data for reaction of the first 10% of substrate. KM and vmax values for each substrate were then determined from a graphical lineweaver-Burke plot of these initial rates (FIG. 1). […]
(§4) Concentrations of dideoxynucleosides were measured by the HPLC analysis of 100 μL aliquots of ultrafiltered samples. […] Dideoxynucleosides and deamination products were detected at the appropriate wavelength of maximum absorption with a Gilson 116 variable wavelength detector. […] Peak areas and peak heights were measured simultaneously on a Spectra-Physics SP4200 computing integrator.

[2] = substrate: Nc1ncnc2c1ncn2[C@@H]1O[C@H](CO)C[C@@H]1F
[3] = substrate: Nc1ncnc2c1ncn2[C@H]1CC[C@@H](CO)O1
Method: as §1, §2, §3, §4

[4] = substrate: OC[C@@H]1C[C@H](F)[C@H](n2cnc3c(Cl)ncnc32)O1
Method: as §1, §2, §3, §4

B1: adenosine deaminase (adenosine aminohydrolase, EC 3.5.4.4) (Bos taurus) (protein)
chain: MAQTPAFNKPKVELHVHLDGAIKPETILYYGRKRGIALPADTPEELQNIIGMDKPLSLPEFLAKFDYYMPAIAGCREAVKRIAYEFVEMKAKDGVVYVEVRYSPHLLANSKVEPIPWNQAEGDLTPDEVVSLVNQGLQEGERDFGVKVRSILCCMRHQPSWSSEVVELCKKYREQTVVAIDLAGDETIEGSSLFPGHVKAYAEAVKSGVHRTVHAGEVGSANVVKEAVDTLKTERLGHGYHTLEDATLYNRLRQENMHFEVCPWSSYLTGAWKPDTEHPVVRFKNDQVNYSLNTDDPLIFKSTLDTDYQMTKNEMGFTEEEFKRLNINAAKSSFLPEDEKKELLDLLYKAYGMPSPASAEQCL
Km [1]: 110 µM
Km [2]: 330 µM
Km [3]: 14 µM
Km [4]: 7500 µM
